# Positions count from the first letter of the chain named.
# B1: 1033B2 human IgG4 (antibody, V domains shown)
# VH: QVQLQQSGAEVKKPGSSVKLSCKASGGTFSSFGISWVRQAPGQGLEWLGRIIPFLGPADYAQKFQGRVTITADESRSTAYMELSSLTSEDTAVYFCARSFYDILTGYYEGVFYYYMDVWGQGTMVTVSS
# VL: QSVLIQPASVSGSPGQSITISCTGTSSDVGGYNYVSWYQQHPGKAPKLMIYEGSKRPSGVSNRFSGSKSGNTASLTISGLQAEDEADYYCSSYTTRSTRVFGGGTKLTVL
# B2: 1057F11 human IgG4 (antibody, V domains shown)
# VH: EVQLVETGGGVVQPGTSLRLSCAASGFTFSSHGMHWVRQAPGQGLEWVAHAWSDGSNKYYADSLKGRFTISRDNSRNTLYLQMNSLRAEDTAVYYCARDGQQLANYAMDVWGRGTTVTVSS
# VL: DIQMTQSPSFLSASVGDRVTITCRASQGINSYLAWYQQIPGKAPNLLIYAASTLQSGVPSRFSGSGSGTEFTLTISSLQPEDFATYYCQQLNTYPFTFGPGTKVEIK
# B3: 1028F8 human IgG4 (antibody, V domains shown)
# VH: EVQLLESGGGLVQPGGSLRLSCAASGFTFSSYAMSWVRQAPGKGLEWVSAIIGSGGSTYYADSVKGRFTISRDNSKNTLYLQMNSLRAEDTAVYYCARAGGSGWFENWFDPWGRGTLVTVSS
# VL: QSVLTQPPSVSVSPGQTATITCSGDNLEDKYVSWYQQKAGQSPVLVIFQDSKRPSEIPERFSGSNSGNTATLTISGTLSGDEADYYCQVWDAGIDPWAFGGGTKLTVL
# B4: 1131H2 human IgG4 (antibody, V domains shown)
# VH: EVQLVQSGAEVKKPGSTVKVSCKASGGTFSTYGISWVRQAPGQGLEWIGGIIPIFDTGNSAQSFQGRVTITADESTSTAYMEVSSLRSDDTAVYYCASSSRIYDLNPSLTAYYDMDVWGQGTMVTVSS
# VL: QAVLTQPSSVSTPPGQKVTISCSGTSSNIGNNYVSWYQQLPGTAPKLLIYDNNKRPSGIPDRFSGSKSGTSATLGITGLQTGDEADYYCGTWDSSLSAWVFGGGTKLTVL
# B5: 1132H9 human IgG4 (antibody, V domains shown)
# VH: B4 VH with T17S
# VL: B4 VL with T25S, N28D, S57T
# B6: 1146D7 human IgG4 (antibody, V domains shown)
# VH: B4 VH with T17S
# VL: B4 VL with K17E, T25S, S27T
# B7: 1126F1 human IgG4 (antibody, V domains shown)
# VH: B4 VH with S7T, T17S, L105A, P107R, S108Q, L109A, T110V, A111P
# VL: B4 VL with K17M, T25S, N28D
# B8: 1150F1 human IgG4 (antibody, V domains shown)
# VH: B4 VH with T17S, G66D, S84G, Q120H
# VL: B4 VL with T25S
# B9: 1131D7 human IgG4 (antibody, V domains shown)
# VH: B4 VH with T17S, L105F, P107S, T110I
# VL: B4 VL with T25S, A85T, G102S
# B10: 1147D2 human IgG4 (antibody, V domains shown)
# VH: B4 VH with T17S, K19R, V20I, I34V
# VL: B4 VL with T25S, I59V
# B11: 1127D9 human IgG4 (antibody, V domains shown)
# VH: EVQLVQSGAEVKKPGSSVKVSCKASGGTFSTYGISWVRQAPGQGLEWIGGIIPIFDTGNSAQSFQGRVTITADESTSTAYMEVSSLRSDDTAVYYCASSSRIYDYHTIAYYDMDVWGQGTMVTVSS
# VL: B4 VL with T25S
# B12: 1145D1 human IgG4 (antibody, V domains shown)
# VH: B4 VH with T17S, G58S, L105F, N106R, P107T, S108L, L109Y, T110S, A111T
# VL: B4 VL with T25S, P60S, T77A
# B13: 1134D9 human IgG4 (antibody, V domains shown)
# VH: B4 VH with T17S, T69A
# VL: B4 VL with T25S, S95G
# B14: 1127F9 human IgG4 (antibody, V domains shown)
# VH: B4 VH with T17S, E82K, L105Y, N106I, S108G, L109M, T110R, A111P
# VL: B4 VL with T25N, K67R, S71L
# B15: 1132A9 human IgG4 (antibody, V domains shown)
# VH: B4 VH with T17S, D56G, L105F, N106E, T110I, A111Y
# VL: B4 VL with T25S
# B16: 1126G5 human IgG4 (antibody, V domains shown)
# VH: B4 VH with T17S, L105F, N106T, P107S, S108G, T110A, A111P
# VL: B4 VL with T25S, S57P, A98T
# B17: 1126H5 human IgG4 (antibody, V domains shown)
# VH: EVQLVQSGAEVKKPGSSVKVSCKASGGTFSTYGISWVRQAPGQGLEWIGGIIPIFDAGNSAQSFQGRVTITADESTSTAHMEVSSLRSEDTAVYYCASSSRIYDHHIQKGGYYDMDVWGQGTMVTVSS
# VL: B4 VL with T25S
# B18: 1021E5 scFv (scFv, part only; not given: Linker and tags, V domains shown, not shown: another chain or arm of the molecule; small tags and cut ends)
# VH: B4 VH with T17S, L105Y, N106A, P107G, S108G, L109D, T110H, A111Y
# VL: B4 VL with T25S
# B19: 1132H9 scFv (scFv, V domains shown)
# VH: B4 VH with T17S
# VL: B4 VL with T25S, N28D, S57T
# notes: also called LOT1132H09
# B20: 1150F1 scFv (scFv, V domains shown)
# VH: B4 VH with T17S, G66D, S84G, Q120H
# VL: B4 VL with T25S
# notes: also called LOT1150F01
# B21: 1134D9 scFv (scFv, V domains shown)
# VH: B4 VH with T17S, T69A
# VL: B4 VL with T25S, S95G
# notes: also called LOT1134D09
# B22: 1165D4 scFv (scFv, V domains shown)
# VH: B4 VH with T17S
# VL: B4 VL with T25S, G30E
# notes: also called LOT1165D04
# B23: 1147D2 scFv (scFv, V domains shown)
# VH: B4 VH with T17S, K19R, V20I, I34V
# VL: B4 VL with T25S, I59V
# notes: also called LOT1147D02
# B24: 1133C11 scFv (scFv, V domains shown)
# VH: B4 VH with T17S
# VL: B4 VL with T25S
# notes: also called LOT1133C11
# B25: 1146D7 scFv (scFv, V domains shown)
# VH: B4 VH with T17S
# VL: B4 VL with K17E, T25S, S27T
# notes: also called LOT1146D07
# B26: 1147G9 scFv (scFv, V domains shown)
# VH: B4 VH with T17S, T31A, D56N
# VL: B4 VL with I20V, T25S
# notes: also called LOT1147G09
# B27: 1160E3 scFv (scFv, V domains shown)
# VH: B4 VH with T17S, V18A
# VL: B4 VL with T25S, S26N
# notes: also called LOT1160E03
# B28: 1131H2 scFv (scFv, V domains shown)
# VH: B4 VH
# VL: B4 VL
# notes: also called LOT1131H02
# B29: 1218H5 scFv (scFv, V domains shown)
# VH: B4 VH with E10V, T17S, N59S
# VL: B4 VL with T25S, I29T, P41S
# notes: also called LOT1218H05
# Target: T1, human nerve growth factor (beta-NGF) (human, UniProt P01138 122-241)
# Assay: cell-based or functional assay
# T1 sequence (P01138 122-241): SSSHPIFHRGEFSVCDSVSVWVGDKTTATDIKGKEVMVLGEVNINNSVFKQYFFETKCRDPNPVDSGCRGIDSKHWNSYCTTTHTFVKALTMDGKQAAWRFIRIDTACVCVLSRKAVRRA
row,"IC50, calcium mobilisation assay [nM]",Binder
1,85,B1
2,~3700,B2
3,73,B3

# Target: T1, human nerve growth factor (beta-NGF)
# Assay: cell-based or functional assay
# Remark: another data set of the same source
"IC50, FLIPR calcium mobilisation [nM]",Binder,"IC50, PC12 cell survival [nM]"
0.27,B4,0.58
0.35,B5,0.55
0.38,B6,0.48
0.35,B7,2.9
0.32,B8,0.47
117,B9,670
0.36,B10,0.51
0.4,B11,0.57
0.36,B12,0.66
0.31,B13,0.54
0.36,B14,0.59
0.39,B15,0.9
0.23,B16,1.5
0.38,B17,8.7

# Target: T2, rat nerve growth factor (beta-NGF) (rat, UniProt P25427 122-241)
# Assay: cell-based or functional assay
# T2 sequence (P25427 122-241): as the sequence (P01138 122-241) above, with S3T, I6V, R9M, M37T, D60A, D65E, M92T, G94D, V117A, A120G counted along it
row,"IC50, FLIPR calcium mobilisation [nM]",Binder
1,0.11,B4
2,0.13,B5
3,0.33,B6
4,0.15,B7
5,0.15,B8
6,37,B9
7,0.21,B10
8,0.22,B11
9,0.17,B12
10,0.14,B13
11,0.14,B14
12,0.25,B15
13,0.16,B16
14,0.15,B17

# Target: mouse nerve growth factor (mouse, UniProt P01139 122-241)
# Assay: cell-based or functional assay
# Chain of mouse nerve growth factor (P01139 122-241): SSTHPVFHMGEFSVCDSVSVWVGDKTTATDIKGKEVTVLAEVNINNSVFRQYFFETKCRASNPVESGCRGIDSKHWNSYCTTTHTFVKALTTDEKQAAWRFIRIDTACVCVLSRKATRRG
row,"IC50, FLIPR calcium mobilisation [nM]",Binder
1,0.12,B4
2,0.16,B5
3,0.31,B6
4,0.22,B7
5,0.19,B8
6,71,B9
7,0.24,B10
8,0.21,B11
9,0.24,B12
10,0.16,B13
11,0.2,B14
12,0.33,B15
13,0.16,B16
14,0.23,B17

# Target: T2, rat nerve growth factor (beta-NGF)
# Assay: purified scFv, inhibition of rat NGF binding to TrkA fusion protein
row,IC50 [nM],Binder
1,269,B18
2,0.68,B19
3,0.16,B20
4,0.2,B21
5,0.29,B22
6,0.1,B23
7,1.24,B24
8,0.02,B25
9,0.01,B26
10,0.22,B27
11,0.09,B28
12,0.03,B29

# Target: T1, human nerve growth factor (beta-NGF)
# Assay: purified scFv, inhibition of human NGF binding to TrkA fusion protein
row,IC50 [nM],Binder
1,94,B18
2,0.54,B19
3,0.2,B20
4,0.14,B21
5,0.11,B22
6,< 0.01,B23
7,1.93,B24
8,0.23,B25
9,0.25,B26
10,0.14,B27
11,< 0.01,B28
12,< 0.01,B29

# Reference: patent US20080107658A1 (AstraZeneca / MedImmune, published 2008)
